Experimental data from paper PMC3115443.

Target: 326^βB (TP0326 β-barrel construct with a C-terminal His-tag) (Treponema pallidum subspecies pallidum (Nichols-Farmington strain))
Assay: native gel or EMSA

326^βB (TP0326 β-barrel construct with a C-terminal His-tag) (domain or fragment)
stoichiometry N: 3
